This is an account of results in the supplement of paper PMC6379048.

Assay in all cases: Kd (EC50 corrected by depletion factor)
One data set addresses SRRM2 (UniProt Q9UQ35). In a few lines: (§1)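 Kd was calculated as EC50, taken from a four-parameter log-logistic fit, multiplied by a protein-dependent depletion factor. The assay used HEK293-FT lysate (2.5 mg protein/well) pre-incubated for 1 h at 4°C with free RNA oligos (0 nM to 30 μM), then incubated for 30 min at 4°C with the matching oligos bound through a 5′-amino-C6 linker to NHS-Sepharose beads. Bound proteins were measured by label-free LC-MS/MS and normalised to the control.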

In the next data set the target is MRPS18A (UniProt Q9NVS2). The procedure, abridged:
as §1

Another data set deals with MRPL14 (UniProt Q6P1L8). The procedure, abridged:
as §1

For another data set, the target named is RPS3 (UniProt P23396). The procedure, abridged: as §1
The target of another data set is IGF2BP2 (UniProt Q9Y6M1). The procedure, abridged: as §1
A further data set addresses PCBP1 (UniProt Q15365). The procedure, abridged: as §1
In another data set the target is T1, DHX37 (UniProt Q8IY37).
T1 sequence: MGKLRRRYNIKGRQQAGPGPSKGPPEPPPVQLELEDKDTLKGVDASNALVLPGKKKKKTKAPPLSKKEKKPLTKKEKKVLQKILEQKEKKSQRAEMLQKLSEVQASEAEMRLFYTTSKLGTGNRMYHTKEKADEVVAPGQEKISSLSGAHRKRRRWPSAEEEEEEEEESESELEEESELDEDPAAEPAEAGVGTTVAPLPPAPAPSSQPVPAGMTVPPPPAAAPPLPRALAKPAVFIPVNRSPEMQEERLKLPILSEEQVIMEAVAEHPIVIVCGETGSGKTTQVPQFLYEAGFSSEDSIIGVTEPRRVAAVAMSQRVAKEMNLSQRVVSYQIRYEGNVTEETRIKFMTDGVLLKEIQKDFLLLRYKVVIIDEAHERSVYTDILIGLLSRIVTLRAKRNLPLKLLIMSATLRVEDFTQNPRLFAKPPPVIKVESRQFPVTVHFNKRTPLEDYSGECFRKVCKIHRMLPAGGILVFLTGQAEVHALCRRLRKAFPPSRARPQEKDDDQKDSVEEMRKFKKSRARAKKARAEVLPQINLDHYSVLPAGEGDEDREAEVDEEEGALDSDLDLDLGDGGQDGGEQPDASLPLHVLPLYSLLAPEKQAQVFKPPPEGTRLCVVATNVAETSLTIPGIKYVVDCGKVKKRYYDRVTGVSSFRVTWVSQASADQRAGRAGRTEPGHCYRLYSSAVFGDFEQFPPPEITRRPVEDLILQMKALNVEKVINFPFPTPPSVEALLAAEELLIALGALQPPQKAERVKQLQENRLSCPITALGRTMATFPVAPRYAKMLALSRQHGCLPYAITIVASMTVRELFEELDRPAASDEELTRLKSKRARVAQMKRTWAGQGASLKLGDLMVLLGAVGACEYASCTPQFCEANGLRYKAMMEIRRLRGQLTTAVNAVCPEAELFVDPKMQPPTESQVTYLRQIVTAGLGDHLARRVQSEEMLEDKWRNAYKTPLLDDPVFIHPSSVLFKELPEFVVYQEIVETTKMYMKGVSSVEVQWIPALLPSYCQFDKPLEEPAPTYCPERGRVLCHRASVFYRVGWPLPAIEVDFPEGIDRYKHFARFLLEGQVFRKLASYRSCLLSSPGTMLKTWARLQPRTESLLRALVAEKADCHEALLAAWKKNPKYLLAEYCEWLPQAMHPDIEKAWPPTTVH
The procedure, abridged: as §1

Another data set has as its target T2, LSM8 (UniProt O95777).
T2 sequence: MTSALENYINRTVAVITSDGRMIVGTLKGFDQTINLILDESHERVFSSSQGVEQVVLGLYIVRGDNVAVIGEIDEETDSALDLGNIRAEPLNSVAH
In a few lines: as §1

The next data set addresses T3, CSTF2T (UniProt Q9H0L4).
T3 sequence: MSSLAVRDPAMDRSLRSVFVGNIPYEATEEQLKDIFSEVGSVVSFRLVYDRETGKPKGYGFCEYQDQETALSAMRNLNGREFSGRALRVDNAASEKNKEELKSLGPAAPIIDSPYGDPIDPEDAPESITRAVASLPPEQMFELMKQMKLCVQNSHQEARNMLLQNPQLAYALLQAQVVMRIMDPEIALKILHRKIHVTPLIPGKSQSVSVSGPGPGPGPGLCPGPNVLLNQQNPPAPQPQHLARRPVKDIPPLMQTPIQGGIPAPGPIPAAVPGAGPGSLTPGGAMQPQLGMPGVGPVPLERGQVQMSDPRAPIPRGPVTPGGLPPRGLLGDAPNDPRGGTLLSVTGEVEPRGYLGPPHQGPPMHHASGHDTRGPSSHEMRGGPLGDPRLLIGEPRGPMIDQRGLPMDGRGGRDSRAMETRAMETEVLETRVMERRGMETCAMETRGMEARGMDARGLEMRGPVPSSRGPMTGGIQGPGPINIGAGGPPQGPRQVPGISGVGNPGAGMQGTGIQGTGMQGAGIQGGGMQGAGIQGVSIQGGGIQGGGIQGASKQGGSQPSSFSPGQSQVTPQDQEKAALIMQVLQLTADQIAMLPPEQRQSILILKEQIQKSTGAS
In a few lines: as §1

PCBP1, sequence (Q15365 whole entry): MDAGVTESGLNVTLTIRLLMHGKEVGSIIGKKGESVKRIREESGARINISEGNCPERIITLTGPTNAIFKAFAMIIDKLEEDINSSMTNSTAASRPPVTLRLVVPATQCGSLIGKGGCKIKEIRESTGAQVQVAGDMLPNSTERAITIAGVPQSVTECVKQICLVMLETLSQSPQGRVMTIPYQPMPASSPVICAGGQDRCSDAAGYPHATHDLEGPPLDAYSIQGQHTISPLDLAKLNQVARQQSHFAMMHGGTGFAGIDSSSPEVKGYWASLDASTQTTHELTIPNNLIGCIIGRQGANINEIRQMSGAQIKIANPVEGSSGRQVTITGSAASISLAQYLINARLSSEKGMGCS
SRRM2, sequence (Q9UQ35 whole entry): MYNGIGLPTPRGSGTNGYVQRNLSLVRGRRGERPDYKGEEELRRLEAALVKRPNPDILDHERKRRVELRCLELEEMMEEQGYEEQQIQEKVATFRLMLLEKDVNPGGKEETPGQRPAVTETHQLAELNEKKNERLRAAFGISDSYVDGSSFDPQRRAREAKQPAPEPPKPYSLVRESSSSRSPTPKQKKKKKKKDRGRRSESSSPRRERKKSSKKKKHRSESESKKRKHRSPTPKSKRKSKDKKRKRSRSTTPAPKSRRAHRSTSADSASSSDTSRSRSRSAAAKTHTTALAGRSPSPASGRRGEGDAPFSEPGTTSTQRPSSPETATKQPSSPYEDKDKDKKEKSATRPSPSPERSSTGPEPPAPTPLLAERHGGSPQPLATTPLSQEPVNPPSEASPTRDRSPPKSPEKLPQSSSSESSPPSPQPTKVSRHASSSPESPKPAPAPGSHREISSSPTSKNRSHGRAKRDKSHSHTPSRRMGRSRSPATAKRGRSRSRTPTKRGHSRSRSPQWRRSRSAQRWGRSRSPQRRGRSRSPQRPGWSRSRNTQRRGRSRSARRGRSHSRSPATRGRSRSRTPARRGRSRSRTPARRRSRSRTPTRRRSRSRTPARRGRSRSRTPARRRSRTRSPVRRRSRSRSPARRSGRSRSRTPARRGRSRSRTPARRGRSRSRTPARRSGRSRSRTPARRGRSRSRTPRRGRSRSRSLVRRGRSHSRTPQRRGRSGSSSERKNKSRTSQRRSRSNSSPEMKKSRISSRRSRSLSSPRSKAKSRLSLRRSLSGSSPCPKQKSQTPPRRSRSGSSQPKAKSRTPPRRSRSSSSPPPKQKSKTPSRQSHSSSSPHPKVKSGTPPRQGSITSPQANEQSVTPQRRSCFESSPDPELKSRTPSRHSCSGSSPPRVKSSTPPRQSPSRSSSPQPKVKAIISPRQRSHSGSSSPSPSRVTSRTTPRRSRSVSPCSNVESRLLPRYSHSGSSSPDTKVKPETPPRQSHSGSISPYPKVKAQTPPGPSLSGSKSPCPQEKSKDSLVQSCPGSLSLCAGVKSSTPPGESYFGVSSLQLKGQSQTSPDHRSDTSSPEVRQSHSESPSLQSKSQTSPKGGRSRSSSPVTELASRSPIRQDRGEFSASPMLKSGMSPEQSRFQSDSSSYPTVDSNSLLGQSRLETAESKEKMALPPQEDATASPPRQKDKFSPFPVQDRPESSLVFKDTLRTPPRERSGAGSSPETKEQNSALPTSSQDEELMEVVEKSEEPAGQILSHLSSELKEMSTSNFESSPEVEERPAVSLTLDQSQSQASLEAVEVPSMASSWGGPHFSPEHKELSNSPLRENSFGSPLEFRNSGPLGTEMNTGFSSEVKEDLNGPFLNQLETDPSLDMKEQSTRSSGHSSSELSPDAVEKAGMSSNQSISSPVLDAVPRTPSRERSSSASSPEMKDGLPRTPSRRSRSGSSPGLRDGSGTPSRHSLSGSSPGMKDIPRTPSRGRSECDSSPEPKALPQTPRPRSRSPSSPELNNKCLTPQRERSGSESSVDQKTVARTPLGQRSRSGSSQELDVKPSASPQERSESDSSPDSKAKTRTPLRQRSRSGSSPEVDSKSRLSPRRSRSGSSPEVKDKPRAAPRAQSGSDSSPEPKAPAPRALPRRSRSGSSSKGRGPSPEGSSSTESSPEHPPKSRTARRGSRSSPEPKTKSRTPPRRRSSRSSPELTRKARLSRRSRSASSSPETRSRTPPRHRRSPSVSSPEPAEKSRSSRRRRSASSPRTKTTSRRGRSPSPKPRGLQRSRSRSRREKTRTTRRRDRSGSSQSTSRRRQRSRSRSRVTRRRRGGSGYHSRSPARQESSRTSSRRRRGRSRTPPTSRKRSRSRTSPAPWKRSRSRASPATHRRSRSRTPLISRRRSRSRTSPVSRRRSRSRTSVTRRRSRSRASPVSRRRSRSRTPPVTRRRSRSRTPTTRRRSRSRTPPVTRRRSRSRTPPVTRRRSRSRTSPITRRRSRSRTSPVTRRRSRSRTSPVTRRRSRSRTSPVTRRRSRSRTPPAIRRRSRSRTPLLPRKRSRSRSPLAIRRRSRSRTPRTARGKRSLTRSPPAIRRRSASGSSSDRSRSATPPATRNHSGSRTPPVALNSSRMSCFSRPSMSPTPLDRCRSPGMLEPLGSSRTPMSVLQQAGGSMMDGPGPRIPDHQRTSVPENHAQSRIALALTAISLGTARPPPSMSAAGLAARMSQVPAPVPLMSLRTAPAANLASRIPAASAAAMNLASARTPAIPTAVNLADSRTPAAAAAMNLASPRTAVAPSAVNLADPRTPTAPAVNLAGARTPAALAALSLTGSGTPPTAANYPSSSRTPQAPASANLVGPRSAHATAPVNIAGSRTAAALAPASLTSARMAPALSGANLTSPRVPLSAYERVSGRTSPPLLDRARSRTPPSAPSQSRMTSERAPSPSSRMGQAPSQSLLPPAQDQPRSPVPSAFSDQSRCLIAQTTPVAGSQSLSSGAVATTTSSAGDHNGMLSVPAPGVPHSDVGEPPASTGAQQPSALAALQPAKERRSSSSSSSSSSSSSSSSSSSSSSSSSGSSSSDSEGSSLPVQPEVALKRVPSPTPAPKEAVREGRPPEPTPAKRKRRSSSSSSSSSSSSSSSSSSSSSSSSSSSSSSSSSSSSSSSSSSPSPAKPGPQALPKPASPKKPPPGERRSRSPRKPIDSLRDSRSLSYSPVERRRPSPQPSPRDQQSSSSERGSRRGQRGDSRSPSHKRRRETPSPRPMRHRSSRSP
IGF2BP2, sequence (Q9Y6M1 whole entry): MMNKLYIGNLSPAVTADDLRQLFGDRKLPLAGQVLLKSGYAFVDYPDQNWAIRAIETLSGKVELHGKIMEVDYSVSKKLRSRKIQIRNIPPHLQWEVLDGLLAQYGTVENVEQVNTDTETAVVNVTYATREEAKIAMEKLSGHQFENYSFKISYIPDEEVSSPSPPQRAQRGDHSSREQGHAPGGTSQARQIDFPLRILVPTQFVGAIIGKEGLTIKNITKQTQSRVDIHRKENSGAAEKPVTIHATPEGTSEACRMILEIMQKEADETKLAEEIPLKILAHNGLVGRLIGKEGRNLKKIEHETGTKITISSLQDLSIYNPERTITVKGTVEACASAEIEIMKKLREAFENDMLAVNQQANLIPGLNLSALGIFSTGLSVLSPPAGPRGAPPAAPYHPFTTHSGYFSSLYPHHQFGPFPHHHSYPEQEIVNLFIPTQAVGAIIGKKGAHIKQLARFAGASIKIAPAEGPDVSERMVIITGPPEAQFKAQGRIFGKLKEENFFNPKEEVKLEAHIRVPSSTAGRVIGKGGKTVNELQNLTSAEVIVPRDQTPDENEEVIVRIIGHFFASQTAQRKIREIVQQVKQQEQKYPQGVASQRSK

The sequence AAUAAA came in with a Kd in the data set with SRRM2 of 0.367 µM.

As for CUGUCCU, the Kd came out at 0.0239 µM with MRPS18A; 0.0535 µM with MRPL14; 0.109 µM in the data set with RPS3; 0.924 µM with IGF2BP2; 1.56 µM in the data set with PCBP1.

As to UAUUUAU, the Kd amounted to 3.37 µM with DHX37, 2.23 µM with LSM8 and 0.257 µM with CSTF2T.

Usually Kd stands for the constant that tells how readily two partners part at equilibrium.
